# Measured values from patent US20210355180A1 (published 2021).
# Target: T1, biotinylated anti-ABD goat antibody
# T1 construct: also called Anti-ABD surface
# Experiment: SPR (Biacore 2000), periplasm diluted 15x over anti-ABD surface
# Text: SPR analysis of periplasmic samples: A selection of Aβ peptide binding polypeptides was subjected to an analysis of the response against biotinylated hAβ₁₋₄₀ using a Biacore 2000 instrument (GE Healthcare). Biotinylated anti-ABD goat antibody (produced in-house) and N-terminally biotinylated hAβ₁₋₄₀ (AnaSpec cat. no. AS-24648) were immobilized in separate flow cells on a streptavidin coated chip (Biacore Sensor Chip SA, cat. no. BR100032) using HBS-EP as running buffer (0.01 M HEPES pH 7.4, 0.15 M NaCl, 3 mM EDTA, 0.005% v/v Surfactant P20, GE Healthcare, cat. no. BR100188). The ligand immobilization levels on the surfaces were approximately 2000 RU for the anti-ABD antibody and 225 RU for hAβ₁₋₄₀. One flow cell surface on the chip was used as blank during analyte injections. HBS-EP was used as running buffer and the flow rate was 25 μl/min. The analytes, i.e. periplasmic preparations of Aβ peptide binding polypeptides as described above, were each diluted 15× in HBS-EP buffer and injected for 10 min, followed by dissociation in running buffer for 5 min. After dissociation, the surfaces were regenerated with 2 pulses of 10 mM glycin pH 2.0. […]
# SPR analysis of periplasmic samples: The interactions of a subset of Z variants with anti-ABD goat antibody and hAβ₁₋₄₀ were analyzed in a Biacore instrument by injecting dilutions of periplasmic samples.
binder,measurement,value
"LAEAKVLANRELDKYGVSDYYKNLINNAKTVEGVKALIDEILAALP (other, periplasm containing ABD only; also called negative control) [ABD (albumin binding domain GA3 from streptococcal Protein G), periplasm control]",Response RU,19.8 RU
